# Measurements taken from patent US20150079064.
# Experiments:
# [1] = test system: TALEN TN8 (FokI ELD-S/KKR-S) (Artificial); test: cell_activity; conditions: pair with TN3; maximum in one DMD myoblast line (6.8% in the other); Surveyor; site preceded by 5'T
# [2] = test system: TALEN TN3 (FokI ELD-S/KKR-S) (Artificial); test: cell_activity; conditions: pair with TN8; maximum in one DMD myoblast line (6.8% in the other); Surveyor; site preceded by 5'T
Sequence,activity (% alleles modified) [1],activity (% alleles modified) [2]
CCTTAGTAACCACAGGT (double strand) [TN8 half-site],12.7,–
AGCTCCTACTCAGACT (double strand) [TN3 half-site],–,12.7
